The values below are quoted from earlier work in article PMC13598549.

This data set deals with TEAD (Homo sapiens) (UniProt P28347).
Chain of UniProt P28347 (P28347 whole entry): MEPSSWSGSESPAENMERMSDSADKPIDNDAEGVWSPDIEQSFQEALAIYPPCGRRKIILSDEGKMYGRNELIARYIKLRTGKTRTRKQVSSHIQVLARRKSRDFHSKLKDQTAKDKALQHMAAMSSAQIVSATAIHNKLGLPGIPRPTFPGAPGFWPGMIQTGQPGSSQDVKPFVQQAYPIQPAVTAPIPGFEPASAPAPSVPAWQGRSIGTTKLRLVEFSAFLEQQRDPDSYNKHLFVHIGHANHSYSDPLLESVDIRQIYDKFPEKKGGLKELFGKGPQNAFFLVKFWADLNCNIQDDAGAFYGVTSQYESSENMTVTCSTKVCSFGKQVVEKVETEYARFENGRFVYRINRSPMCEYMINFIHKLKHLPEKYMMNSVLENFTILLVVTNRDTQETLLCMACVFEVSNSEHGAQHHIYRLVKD

Regarding YAP (from UniProt P46937), the Kd is 40 nM.

Usually Kd stands for the concentration at which binding is half-saturated.
